Patent publication US5807824A, “C5A receptor antagonists having substantially no agonist activity” (priority 1995, dated 1998)

Columns and labels:
[1] = tested on: C5a-induced enhancement in vascular permeability; assay: Rabbit dermal model of inflammation ([125I]-BSA exudation at intradermal sites); format: in vivo, New Zealand White rabbits
Description: All experiments were performed on male New Zealand White rabbits weighing 2.5-3.0 kg. The backs of the rabbits were shaved and 40-50 skin sites were designated with markers of different colors. Different stimuli (i.e., C5a, C5a analogue, C5a+C5a analogue, vehicle control, etc.) were injected intradermally at 0.1 ml/site using a sterile, disposable, 26 gauge, 0.5 in. needle and 1.0 cc tuberculin syringe. I.D. injections were administered in replicates of six, roughly 45 minutes before euthanization. C5a alone was injected at a dose of 50 ng/site, and the C5a receptor antagonists were co-injected at various concentrations with the same dose of C5a. At 20 minutes prior to euthanization, 18-36 uCi of [125I]-labeled bovine serum albumin in 1.0 ml physiological saline were introduced into the systemic circulation via the marginal auricular vein. At 45 minutes, the rabbit was euthanized with an I.V. overdose of sodium pentobarbital. […]
After death, the dorsal skin was excised and pinned to a wooden dissecting board. […] This procedure reduced variation among skin sites and decreased background radioactivity. […] Injection sites were then analyzed for their radioactive content using a Gamma Counter (Genesys).

C5a-induced neutropenia = C5a-induced neutropenia in the rabbit; format: in vivo, New Zealand White rabbits; conditions: i.v. bolus; for Inhibition of C5a-induced neutropenia versus vehicle-treated rabbits: 100 ng C5a
Description: All experiments were performed on male New Zealand White rabbits weighing 2.5-3.0 kg. Rabbits were anesthetized with 10 mg/kg xylazine and 50 mg/kg ketamine administered in combination intramuscularly. A 25 gauge butterfly catheter was inserted in the lateral ear vein to use for infusions. Each blood sample (0.2 ml) was collected from the central ear artery into a plastic syringe fitted with a 25 gauge, 5/8 inch needle and charged with 7.5% EDTA as an anticoagulant. Blood was immediately expressed into a microcentrifuge tubes containing 10 microliters of 7.5% EDTA. An initial arterial blood sample (#1) was obtained and immediately thereafter vehicle or the C5a analogue of Example 8 was infused intravenously (bolus injection). Twenty seconds later, a second blood sample (#2) was obtained and twenty seconds thereafter 100 ng of C5a in 0.2 ml were infused intravenously (bolus injection). Twenty seconds later, a third blood (#3) sample was taken. Thirty minutes later, a second round of blood sample (#4)----20 seconds--C5a infusion--20 seconds--blood sample (#5) was performed. Blood samples were evaluated by automated hematologic analysis (Technicon H*1) using software specific for rabbit blood. Reductions in neutrophil counts (number per milliliter) induced by C5a(C5a-induced neutropenia, determined by comparing blood sample #3 to #2 and #5 to #4) were compared between vehicle-treated and C5a analogue-treated animals.

C5a receptor [2] = biological target: T1, C5a receptor (Homo sapiens, UniProt P21730); assay: C5a induced Ca++ rise assay in fura-2 loaded neutrophils; format: cell-based
T1 construct: Neutrophils were purified from human peripheral blood; endogenous in cells; host or cells: neutrophils from human peripheral blood
T1 sequence (P21730 1-350): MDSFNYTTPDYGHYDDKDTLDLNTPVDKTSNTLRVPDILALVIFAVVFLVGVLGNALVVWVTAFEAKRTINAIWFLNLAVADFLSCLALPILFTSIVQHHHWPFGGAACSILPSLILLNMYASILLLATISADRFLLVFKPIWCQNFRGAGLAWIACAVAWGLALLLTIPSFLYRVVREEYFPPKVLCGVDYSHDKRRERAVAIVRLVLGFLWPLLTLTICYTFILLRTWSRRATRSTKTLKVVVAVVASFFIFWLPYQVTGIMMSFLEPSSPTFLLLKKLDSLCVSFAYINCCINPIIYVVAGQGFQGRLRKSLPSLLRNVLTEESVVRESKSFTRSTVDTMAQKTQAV
Excerpt: The antagonism of the instant C5a analogues may be quantified as an IC50 in the calcium rise assay disclosed in Seligmann et al., Agents and Actions 21:375-378 (1987), described in detail in Example 7.
See Hugli et al., CRC Crit. Rev. Immunol. 1:321-326 (1981) and PCT WO 92/10205. A quantitative measure of this property may also be obtained using the calcium rise assay disclosed in Seligmann et al., supra, also described in Example 7. EC50 is a measure of agonistic activity.
Recombinant human C5a was dissolved in Hanks buffer containing 0.01% Tween-20, and all stock dilutions of C5a were made in this buffer. The acetoxymethyl ester of fura-2 (fura 2AM, Molecular Probes) was dissolved in DMSO. Neutrophils were purified from human peripheral blood by sedimentation in 6% hetastarch (HESPAN, DuPont, Waukegan, Ill., followed by counter flow elutriation as described in Chapman-Kirkland et al., J. Immunol. Meth. 142:95-104 (1991). Purified cells (2×10^6/ ml) were mixed with 0.2 uM fura- 2AM and incubated for 30 min at 37° C. in HEPES buffered Hanks solution without calcium or magnesium. Fifteen minutes before the assay, the cell suspension was transferred to a curvette containing a stir bar and calcium was added to 1 mM. The cell suspension was incubated with stirring at 37° C. Assays were terminated within 5 h of cell purification and a standard control response was obtained periodically to insure that the cell responses were not changing over the time of the experiment. The amount of fluorescence was determined using an SLM 8000 spectrofluorometer (SLM-Aminco Instruments, Urbana, Ill.). Curvettes were placed in the fluorometer and after obtaining a baseline for 10 sec, the C5a receptor antagonists to be tested for antagonistic properties were added and any change in fluoresence excitation ratio of 340 nm/380 nm (emission of 510 nm) was measured. Forty seconds after analogue addition, a challenge dose of C5a was added to a final concentration of 100 pM and the resulting change in excitation ratio was measured.
IC50 values were used as a measure of antagonist potency. These values are defined as the concentration of C5a analogue needed to reduce the calcium rise response of the 100 pM C5a challenge dose by 50%. EC50 values were used as a measure of agonist potency. […]

C5a receptor [3] = biological target: T1, C5a receptor; assay: Receptor binding assay: displacement of [125I]Bolton-Hunter labelled C5a from PMNL membranes
Description: C5a and C5a receptor antagonists were tested for their affinity for the C5a receptor. […] PMNLs were resuspended in Hanks balanced salt solution, without Ca^++ and Mg^++ and which contained 10 mM HEPES at pH 7.3, 2.5 mM MgCl2, 100 units/ml DNAse I, 0.1 mM PMSF, 10 μg/ml aprotonin and 10 μg/ml leupeptin. They were then equilibrated at 400 psi for 20 min at 4° C. in a nitrogen cavitation bomb. After evacuation into 3 volumes 0.5M KHCO3 containing 25 mM EDTA and the protease inhibitors listed above, the gelatinous material was removed with forceps and the mixture was centrifuged at 400×g for 10 min at 4° C. The resulting supernatant was centrifuged at 50,000×g for 60 min at 4° C. The pellets from the aliquots representing 200×10^6 cells were stored at -70° C. For binding studies, these membranes were resuspended at an equivalent of 20×10^6 cells/ml in 50 mM HEPES at pH 7.3, containing 1 mM CaCl2, 5 mM MgCl2, 0.1 mM PMSF, 0.1% bacitracin and 0.5% BSA.
Nonspecific binding was determined in the presence of 10 nM unlabelled C5a. The binding reaction was initiated by the addition of the PMNL membranes and was continued for 120 min at 4° C. Bound and free radioactivity were separated by vacuum filtration through GF/C glass fiber filters (Whatman), pretreated for 90 min with 0.05% PEI (polyethyleneimine) using a Cell Harvester (Brandel, Gaithersburg, Md.). Filters were washed with 3×5 ml of ice-cold 5 mM Tris buffer at pH 7.4 and counted in a multiwell Gamma counter (Genesys). Data were analyzed using the non-linear regression analysis program, RS/1 (Bolt, Beranek and Newman, Boston) and expressed as IC50 values. The results are set forth below in Table 4 as Ki values using the Cheng-Presoff equation. See Braunwalder et al., supra.

[4] = Table 6, Example 10 comparison with decapeptide

IC50 (C5a receptor [2]; [4]): 51 nM
Concentration up to which tested with agonist activity not detected (C5a receptor [2]; calcium rise assay): > 3 µM
Ki (C5a receptor [3]; Table 4, [125I]BH-C5a 4.0 pM, PMNL membranes, Cheng-Prusoff): 0.2 nM
Ki (C5a receptor [3]; [4]): 0.04 nM
B1: C5a (1-71, T1M, C27S, Q71C) (protein, UniProt P01031 678-751, looked up, variant T1M C27S Q71C)
C5a anaphylatoxin: MLQKKIEEIAAKYKHSVVKKCCYDGASVNNDETCEQRAARISLGPRCIKAFTECCVVASQLRANISHKDMCLGR
modifications: C5a anaphylatoxin
Pro-inflammatory reaction (agonist properties in vivo) ([1]; analogue at 175 ng/site intradermally): did not cause a pro-inflammatory reaction
ID50 (dose causing 50% reduction in radioactivity produced by C5a) ([1]; co-injected intradermally with 50 ng C5a/site): 70 ng/site
Effect on baseline neutrophil counts (agonistic, C5a-like properties) (C5a-induced neutropenia; before C5a challenge): did not alter baseline neutrophil counts from normal
Inhibition of C5a-induced neutropenia versus vehicle-treated rabbits (C5a-induced neutropenia; 30-minute C5a challenge interval): 41%
Inhibition of C5a-induced neutropenia versus vehicle-treated rabbits (C5a-induced neutropenia; 40-second C5a challenge interval): 67%
